According to paper PMC2592702 (PLoS ONE, 2008):

What was measured:
[1] = biological target: T1, N-terminally truncated recombinant mouse PrP, residues 121–231 (rmPrP_(121-231)) (Mus musculus, UniProt P04925); test: SPR; […]; antibody 420 pM–110 nM in HBS-EP at 20 µl/min, 20 min dissociation, […]; details: both partners purified
[2] = biological target: T2, POM2 epitope-mimicking peptide of the competition BIAcore experiment (Mus musculus); test: SPR; […] (100–[…]), 1 h at room temperature; […]; HBS-EP; details: both partners purified
T2 chain: QPHGGGW

[3] = biological target: T1, N-terminally truncated recombinant …; test: ELISA

T1 sequence (P04925 whole entry, looked up, the tested form may be a part): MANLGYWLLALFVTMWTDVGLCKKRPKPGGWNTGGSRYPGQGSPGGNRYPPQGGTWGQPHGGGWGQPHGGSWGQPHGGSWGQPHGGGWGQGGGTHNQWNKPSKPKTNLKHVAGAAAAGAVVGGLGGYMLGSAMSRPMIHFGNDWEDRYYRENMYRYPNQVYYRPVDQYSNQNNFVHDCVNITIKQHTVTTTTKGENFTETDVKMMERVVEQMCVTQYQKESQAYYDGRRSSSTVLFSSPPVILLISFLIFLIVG

B1: POM19 monoclonal antibody (antibody, V domains shown)
VH: EVKLMESGAELMKPGGSVKISCKATGYTFYSYWIEWIKRRPGHGLEWIGEILPGTGDTKYSEKFKGRATFTADPSSNTAYMQLSSLTSEDSAVYYCTRLIYYRYDDYALDYWGQGTSVTVSS
VL: DIVMTQSPAVMSASPGEKVTMTCSASSSISYMHWYQQKPGTSPKRWIFDTSKLASGVPARFSGSGSGTSYSPTISSMEAEDAATYFCHQRIIYPTFGGGTKLEMK
B1 was tested, and the Kd [1] was 0.87 nM.

B2: POM2 scFv, purified and refolded (scFv, V domains shown)
VH: EVKLQESGGEVVRPGTSVKVSCKASGYAFTNYLIEWVKQRPGQGLEWIGVINPGSGDTNYNEKFKGKATLTADKSSSTAYMQLNSLTSDDSAVYFCARSGVAAPYYYAMDYWGQGTSVTVSS
VL: DIVMTQSHKFMSTSVGDRVSITCKASQDVGTALAWYQQKPGQSPKLLIYWASTRHTGVPDRFTGSGSGTDFTLTISNVQSEDLSDYFCQQYSSYPTFGGGTKLEIK
Binder B2 has a Kd [2] of 20 nM.

B3: POM11 monoclonal antibody (antibody, V domains shown)
VH: DVMLVESGPELEKPGASVRISCKASGYSFTGYNMDWVKQNNGKSLEWIGSIDPYYGGTSYNQSFKDKATLTVDKSSGTAYMQLKSLTSDDSAVYYCARGGVGPYYYALDYWGQGTSVTVSS
VL: DIVLTQSHKFMSTSVGDRVSITCKASQDVGSAVAWYQQKPGQSPKLLIYWSSTRHTGVPDRFTGSGSGTDFTLTISNVQSEDLADYFCHQYNSSPTFGRGTKLELK
B3: no binding [3].
